Experimental data as given in US20100216693A1, “COMPOSITIONS AND METHODS OF TREATING DIABETES” (priority 2005, published 2010).
Entries after “also recorded” stand apart in the source; their conditions may differ.

Experiments:
[1] = target: T1, insulin-insulin interaction (Homo sapiens, UniProt P01308); test: SPR: effect of substances mixed with insulin in solution on insulin-insulin interaction; type: binding; conditions: for effect on insulin-insulin interaction when injected along with insulin: 1:5 molar ratio
T1 construct: 28; purchased Novo Nordisk A/S, Denmark Actrapid
Method: BiacorA Biacore 3000 instrument was employed for the interaction measurements based on surface plasmon resonance (SPR). Interaction analyses were performed at 25° C. in 10 mM Na-citrate buffers pH 3, 4, 5, 10 mM bis-Tris, pH 6, and 10 mM Tris/HC1, pH 7, all buffers containing 100 mM NaCl and 0.005% 5P20. Flow rates for the binding analyses were kept at 20 μl/min. […] Insulin was immobilized on a carboxymethyl-modified dextran surface via both amine and carboxyl coupling, using the surface thiol method, in two different lanes of Biacore CM5 chips. The immobilization was carried out according to the procedure described in the kits. In brief, the sensor chip surface was first washed with 4 M LiCl/HBS for 1 min and then with 0.2% SP20/HBS for 1 mM. The surface was activated according to standard procedure with an injection of 0.05 M NHS/0.2 M EDC for 7 min. Desalted insulin solution was diluted in acetate buffer, pH 4.5, to 20 μg/ml and injected at 50/min for different time intervals. For surface thiol coupling, the surface was first activated with 0.05 M NHS/0.2 M EDC for 2 min followed by a 3 min injection of 40 mM cystamine dihydrochloride and then 0.1 M DTE for 3 min. […] The mixture was incubated for 10 mM at room temperature and excess PDEA was removed on a NAP-10 column. The purified PDEA ligand was injected for 7 min, soon after DTE, and finally the surface was washed with 20 mM PDEA in 0.1 M sodium acetate, 1.0 M NaCl. For quick regeneration of the surface, 2 M guanidine-HC1, pH 6.4, was employed. For controls, lanes activated and deactivated according to the standard procedures were used. For subtraction of noise from the data, running buffer only was injected to all surfaces. For the C-terminal attachment, surface-thiol coupling to 4000-5000 RU was used, and for N-terminal attachment, amine coupling to 800-1000 RU as achieved on different CM5 chips. However for kinetic analysis immobilization was carried out in a controlled condition and around 1000 RU for C-terminal and 400 RU for N-terminal coupling were immobilized. A surface activated with EDC/NHS and deactivated with ethanolamine was used as a control surface for N-terminally immobilized insulin and a surface treated with EDC/NHS, cysteine/DTE and finally deactivated with PDEA-NaCl was used as a control for C-terminally immobilized insulin. Biacore data were analyzed with Bia-evaluation software 4.1. All calculations based on numerical approaches, including simulations and global curve fitting for estimates of active concentrations, were performed with IGOR Pro (version 4.01.A, WaveMetrics, Inc.). However, C-peptide, mixed with insulin in solution, influences the insulin-insulin monomer interactions measured above. […] This elevated interaction can be seen at different pH from 3-7. The phenomenon of more pronounced interaction was clearer when concentrations higher than 0.5 μM were used then below 0.5 μM. […] All concentrations were run in triplicates and in random order.

[2] = target: T2, insulin immobilized on the surface of CM5 chip (Homo sapiens, UniProt P01308); test: SPR: direct binding of C-peptide and variants to insulin immobilized on CM5 chip; conditions: pM-μM, pH 3-7
T2 construct: 28; purchased Novo Nordisk A/S, Denmark Actrapid
Method: BiacorA Biacore 3000 instrument was employed for the interaction measurements based on surface plasmon resonance (SPR). Interaction analyses were performed at 25° C. in 10 mM Na-citrate buffers pH 3, 4, 5, 10 mM bis-Tris, pH 6, and 10 mM Tris/HC1, pH 7, all buffers containing 100 mM NaCl and 0.005% 5P20. Flow rates for the binding analyses were kept at 20 μl/min. […] Insulin was immobilized on a carboxymethyl-modified dextran surface via both amine and carboxyl coupling, using the surface thiol method, in two different lanes of Biacore CM5 chips. The immobilization was carried out according to the procedure described in the kits. In brief, the sensor chip surface was first washed with 4 M LiCl/HBS for 1 min and then with 0.2% SP20/HBS for 1 mM. The surface was activated according to standard procedure with an injection of 0.05 M NHS/0.2 M EDC for 7 min. Desalted insulin solution was diluted in acetate buffer, pH 4.5, to 20 μg/ml and injected at 50/min for different time intervals. For surface thiol coupling, the surface was first activated with 0.05 M NHS/0.2 M EDC for 2 min followed by a 3 min injection of 40 mM cystamine dihydrochloride and then 0.1 M DTE for 3 min. […] The mixture was incubated for 10 mM at room temperature and excess PDEA was removed on a NAP-10 column. The purified PDEA ligand was injected for 7 min, soon after DTE, and finally the surface was washed with 20 mM PDEA in 0.1 M sodium acetate, 1.0 M NaCl. For quick regeneration of the surface, 2 M guanidine-HC1, pH 6.4, was employed. For controls, lanes activated and deactivated according to the standard procedures were used. For subtraction of noise from the data, running buffer only was injected to all surfaces. […] Similar results where obtained when insulin was injected on C-peptide immobilized on the surface of a streptavidin (SA) chip. Both peptides were injected in concentration ranging from pM-μM at different pH from 3-7. […] This conclusion is compatible with the fact that C-peptide and insulin are joined in proinsulin by covalent bonds rather than binding attachments, and with little ordered structure in the C-peptide part. […] This appears relevant since C-peptide is very negative (−6 charges) with much repulsive forces.

[3] = target: T3, chip-bound C-peptide (Homo sapiens, UniProt P01308); test: SPR: binding of C-peptide in solution to chip-bound C-peptide
T3 sequence (P01308 57-87 limits assumed): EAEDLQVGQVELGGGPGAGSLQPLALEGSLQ
Method: Similar results where obtained when insulin was injected on C-peptide immobilized on the surface of a streptavidin (SA) chip. Both peptides were injected in concentration ranging from pM-μM at different pH from 3-7. […] This conclusion is compatible with the fact that C-peptide and insulin are joined in proinsulin by covalent bonds rather than binding attachments, and with little ordered structure in the C-peptide part. […] This appears relevant since C-peptide is very negative (−6 charges) with much repulsive forces.

[4] = target: T4, insulin (Homo sapiens, UniProt P01308); test: Non-denaturing nano-electrospray mass spectrometry of insulin, C-peptide and control peptides; type: binding
T4 construct: 28; purchased Novo Nordisk A/S, Denmark Actrapid
Method: For mass spectrometric analysis, preparation of concentrated insulin stock solution was performed essentially as described [Nettleton et al, 2000, Biophys J. 79:1053]. Briefly, insulin (NovoNordisk A/S, Denmark) was concentrated to 100 μM using ultrafiltration spin-filters (NanoSep, PallGellman, MWCO: 3000 Da). This stock solution was then buffer-exchanged to water, pH 5 (HCl), by extended dialysis. For all experiments, insulin and C-peptide stock solutions were diluted in water-HC1 (pH 5) to reach the indicated concentrations. C-peptide was prepared as a 746 μM stock solution in water and all control peptides were prepared similarly.
Mass spectrometry data were recorded with a QTOF Ultima API instrument (Waters, Milford, Mass.) operated in the positive ion mode. Sample solutions were analyzed by nanoelectrospray from conductive borosilicate glass capillaries (Proxeon Biosystems A/S, Odense, Denmark). Instrument settings were not modified for the observation of non-covalent complexes, other than that the “cone” and the “RF-lens” settings were set to 90 and 50 V, respectively.
The binding between insulin and C-peptide in the gas-phase was studied by non-denaturing electrospray mass spectrometry using a method analogous to that of Nettleton et al [Nettleton et al, 2000, Biophys J. 79:1053].

T2 sequence (P01308 25-54 limits assumed): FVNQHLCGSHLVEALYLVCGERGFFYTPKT
T2 sequence (P01308 90-110 limits assumed): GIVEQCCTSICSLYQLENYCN
T1 sequence (P01308 25-54 limits assumed): as the sequence (P01308 25-54 limits assumed) above
T4 sequence (P01308 25-54 limits assumed): as above

Row | Substance | effect on insulin-insulin interaction when injected along with insulin [1] | stimulation of SPR-measurable binding in mixture with insulin in the flow-through solution ([1]; Example 10) | interaction with immobilized insulin (peptide alone in solution) [2] | binding of C-peptide in solution to chip-bound C-peptide [3] | self-aggregation of the peptide in the gas-phase [4] | interaction with insulin in nanoESI-MS at 0.3 μM ([4]; 0.3 μM level, 1:1 ratio) | interaction (heterodimer) with insulin in nanoESI-MS ([4]; 3 μM, 1:1 ratio, pH 5) | hexameric insulin charge states in the presence of the peptide ([4]; 30 μM insulin, 30 μM peptide, pH 5) | concentration at which a dimer of the peptide was detected ([4]; gas-phase) [µM] | effect on insulin-insulin interaction (SPR binding signal) when mixed with insulin ([1]; insulin:peptide 1:1 and 1:5, pH 3-7) | effect of C-peptide on insulin-insulin interaction at pH 4 or 7 ([1]; pH 4 or 7, 10 μM insulin, 50 μM C-peptide) | effect of C-peptide on insulin-insulin interaction at pH 5-6 ([1]; pH 5-6, 10 μM insulin, 50 μM C-peptide) | interaction with immobilized insulin (peptide alone in solution) ([2]; listed as Proinsulin C-peptide)
1 | Glu27-Ala: C-peptide analogue in which Glu 27 has been substituted with Ala (EAEDLQVGQVELGGGPGAGSLQPLALAGSLQ) | failed to show any significant increase | did also not stimulate the SPR signal | showed no interaction with insulin |  |  |  |  |  |  |  |  |  | 
2 | Proinsulin C-peptide (EAEDLQVGQVELGGGPGAGSLQPLALEGSLQ) |  |  | not to give any observable binding | no evidence for such binding | showed an aggregation tendency | not possible to detect | clearly shows the interaction | no hexameric insulin was detectable; also recorded: absence of insulin hexamers | 3 | higher interaction with immobilized insulin; also recorded: increases the observable SPR binding signal | little effect | Enhanced insulin interaction | showed no interaction with insulin
3 | Glu11-Ala: C-peptide analogue in which Glu 11 has been substituted with Ala (EAEDLQVGQVALGGGPGAGSLQPLALEGSLQ) | failed to show any significant increase |  | showed no interaction with insulin |  |  |  |  |  |  |  |  |  | 
